Measured values taken from the supplement of paper PMC7877785.
± gives the uncertainty stated by the source.

Assay: self-splicing fitness, log relative to wild type (ln ratio); higher = more splicing; Tetrahymena group I intron in knt gene, E. coli kanamycin selection, DiMSum; sequences stand for … in CUCUCU…GGAGGGAAAAGUUAUCAGGCAUGCACCUGGUAGCUAGUCUUUAAACCAAUAGAUUGCAUCGGUUUAAAAGGCAAGACCGUCAAAUUGCGGGAAAGGGGUCAACAGCCGUUCAGUACCAAGUCUCAGGGGAAACUUUGAGAUGGCCUUGCAAAGGGUAUGGUAAUAAGCUGACGGACAUGGUCCUAACCACGCAGCCAAGUCCUAAGUCAACAGAUCUUCUGUUGAUAUGGAUGCAGUUCACAGACUAAAUGUCGGUCGGGGAAGAUGUAUUCUUCUCAUAAGAUAUAGUCGGACCUCUCCUUAAUGGGAGCUAGCGGAUGAAGUGAUGCAACACUGGAGCCGCUGGGAACUAAUUUGUAUGCGAAAGUAUAUUGAUUAGUUUUGGAGUACUCGUGGUCG
Summary of the method: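 Colonies from six replicate transformations of E. coli BL21(DE3) were pooled and amplicon-sequenced on an Illumina HiSeq 2500. The library placed an intron with all eight P1ex-region nucleotides randomised inside the knt kanamycin-resistance gene on pET-22b(+), and cells grew overnight at 37°C or 30°C on LB agar with or without 25 μg/mL kanamycin (plus 100 μg/mL carbenicillin, 50 μM IPTG, 0.2% rhamnose). Fitness is the DiMSum error-weighted combination of wild-type-normalised replicate fold changes, kanamycin versus none.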

Row | Sequence | self-splicing fitness (ln) (30 °C) | self-splicing fitness (ln) (37 °C)
1 | AAAAAGCAAUAUUACGACAA | -0.322 ± 0.1 | 0.331 ± 0.12
2 | AAAAAGCAAUAUUACGACUU | 0.0987 ± 0.065 | -0.391 ± 0.085
3 | AAAAAGCAAUAUUACGAGGG | -3.5 ± 0.18 | -1.84 ± 0.16
4 | AAAAAGCAAUAUUACGAUUU | 0.149 ± 0.074 | 0.324 ± 0.095
5 | AAAAAGCAAUAUUACGCACU | 0.146 ± 0.079 | 0.322 ± 0.083
6 | AAAAAGCAAUAUUACGCAUC | -2.24 ± 0.13 | -1.34 ± 0.15
7 | AAAAAGCAAUAUUACGCGAU | -2.51 ± 0.16 | -1.07 ± 0.14
8 | AAAAAGCAAUAUUACGCGCG | -0.0286 ± 0.091 | -0.207 ± 0.11
9 | AAAAAGCAAUAUUACGCUAU | -2.04 ± 0.11 | -1.31 ± 0.11
10 | AAAAAGCAAUAUUACGCUUC | -3.38 ± 0.3 | –
11 | AAAAAGCAAUAUUACGGAGG | -3.71 ± 0.21 | -2.94 ± 0.2
12 | AAAAAGCAAUAUUACGGAUA | -2.25 ± 0.11 | -1.14 ± 0.097
13 | AAAAAGCAAUAUUACGGCGA | -0.0921 ± 0.08 | 0.25 ± 0.12
14 | AAAAAGCAAUAUUACGGGAC | -1.94 ± 0.098 | -0.477 ± 0.11
15 | AAAAAGCAAUAUUACGGGUG | -1.69 ± 0.062 | -0.982 ± 0.077
16 | AAAAAGCAAUAUUACGGGUU | -1.38 ± 0.075 | -1.37 ± 0.11
17 | AAAAAGCAAUAUUACGUAAC | -2.45 ± 0.13 | -1.12 ± 0.13
18 | AAAAAGCAAUAUUACGUAUA | -2.14 ± 0.14 | -1.5 ± 0.15
19 | AAAAAGCAAUAUUACGUCGG | -1.36 ± 0.082 | -1.39 ± 0.1
20 | AAAAAGCAAUAUUACGUCUA | -0.394 ± 0.053 | 0.068 ± 0.07
21 | AAAAAGCAAUAUUACGUCUU | -0.301 ± 0.043 | 0.361 ± 0.063
22 | AAAAAGCAAUAUUACGUGGU | -3.26 ± 0.11 | -2.74 ± 0.12
23 | AAAAAGCAAUAUUACGUUAG | -3.37 ± 0.17 | -2.61 ± 0.16
24 | AAACAGCAAUAUUACGAAAG | -2.21 ± 0.13 | -1.57 ± 0.18

Row | Sequence | self-splicing fitness (ln) (30 °C) | self-splicing fitness (ln) (37 °C)
25 | AAACAGCAAUAUUACGCCAA | -3.08 ± 0.25 | -1.44 ± 0.15
26 | AAACAGCAAUAUUACGCCAU | -3.26 ± 0.17 | -2.42 ± 0.18
27 | AAACAGCAAUAUUACGCGAG | -1.6 ± 0.076 | -1.12 ± 0.096
28 | AAACAGCAAUAUUACGCGGA | -2.23 ± 0.11 | -1.02 ± 0.093
29 | AAACAGCAAUAUUACGCUGA | -3.16 ± 0.14 | -1.52 ± 0.11
30 | AAACAGCAAUAUUACGGAAG | -3.7 ± 0.2 | -1.8 ± 0.17
31 | AAACAGCAAUAUUACGGCAU | -0.814 ± 0.066 | -0.78 ± 0.08
32 | AAACAGCAAUAUUACGGCUU | -0.312 ± 0.052 | 0.129 ± 0.07
33 | AAACAGCAAUAUUACGGGAA | -2.41 ± 0.17 | -1.24 ± 0.12
34 | AAACAGCAAUAUUACGGGAC | -3.74 ± 0.25 | -2.35 ± 0.26
35 | AAACAGCAAUAUUACGGGCC | -3.42 ± 0.17 | -2.29 ± 0.16
36 | AAACAGCAAUAUUACGGGUG | -3.09 ± 0.094 | -1.73 ± 0.089
37 | AAACAGCAAUAUUACGGGUU | -2.28 ± 0.09 | -1.8 ± 0.11
38 | AAACAGCAAUAUUACGGUGA | -0.283 ± 0.093 | -0.496 ± 0.12
39 | AAACAGCAAUAUUACGGUGC | -2.97 ± 0.11 | -3.4 ± 0.17
40 | AAACAGCAAUAUUACGGUGG | -2.61 ± 0.096 | -1.93 ± 0.12
41 | AAACAGCAAUAUUACGGUUG | -1.99 ± 0.061 | -0.629 ± 0.075
42 | AAACAGCAAUAUUACGGUUU | -3.64 ± 0.11 | -2.51 ± 0.12
43 | AAACAGCAAUAUUACGUCAG | -3.36 ± 0.12 | -2.41 ± 0.12
44 | AAACAGCAAUAUUACGUGUG | -2.38 ± 0.057 | -1.38 ± 0.07
45 | AAACAGCAAUAUUACGUUGA | -2.58 ± 0.094 | -1.23 ± 0.089
46 | AAACAGCAAUAUUACGUUGG | -3.61 ± 0.1 | -2.43 ± 0.11
47 | AAACAGCAAUAUUACGUUGU | -4.04 ± 0.1 | -2.73 ± 0.1
48 | AAACAGCAAUAUUACGUUUC | -3.8 ± 0.1 | -2.73 ± 0.11

Row | Sequence | self-splicing fitness (ln) (30 °C) | self-splicing fitness (ln) (37 °C)
49 | AAAGAGCAAUAUUACGAACC | – | -1.39 ± 0.46
50 | AAAGAGCAAUAUUACGAUAG | -3.88 ± 0.23 | -2.9 ± 0.2
51 | AAAGAGCAAUAUUACGAUCU | -1.42 ± 0.12 | -0.518 ± 0.12
52 | AAAGAGCAAUAUUACGAUGA | -3.01 ± 0.25 | -2.02 ± 0.19
53 | AAAGAGCAAUAUUACGCAAU | -3.59 ± 0.21 | -1.65 ± 0.16
54 | AAAGAGCAAUAUUACGCACC | -2.03 ± 0.15 | -0.855 ± 0.17
55 | AAAGAGCAAUAUUACGCAUU | -3.61 ± 0.19 | -1.88 ± 0.21
56 | AAAGAGCAAUAUUACGCUGA | -2.1 ± 0.14 | -2.6 ± 0.26
57 | AAAGAGCAAUAUUACGGCAA | -3.23 ± 0.36 | -1.58 ± 0.19
58 | AAAGAGCAAUAUUACGGGUC | -3.24 ± 0.21 | -3.09 ± 0.37
59 | AAAGAGCAAUAUUACGGUAG | -3.9 ± 0.27 | -2.11 ± 0.18
60 | AAAGAGCAAUAUUACGGUGC | -3.49 ± 0.17 | -1.54 ± 0.15
61 | AAAGAGCAAUAUUACGGUGG | -2.85 ± 0.15 | -2.14 ± 0.25
62 | AAAGAGCAAUAUUACGUAGA | -3.25 ± 0.24 | -1.7 ± 0.2
63 | AAAGAGCAAUAUUACGUGGA | -3.36 ± 0.32 | -2.67 ± 0.26
64 | AAAGAGCAAUAUUACGUGGU | -4.52 ± 0.27 | -3.08 ± 0.18
65 | AAAGAGCAAUAUUACGUGUA | -3.3 ± 0.16 | -2.27 ± 0.22
66 | AAAGAGCAAUAUUACGUGUC | -3.42 ± 0.15 | -2.2 ± 0.12
67 | AAAUAGCAAUAUUACGAGGC | -3.64 ± 0.47 | –
68 | AAAUAGCAAUAUUACGCCAG | -2.53 ± 0.24 | -2.09 ± 0.42
69 | AAAUAGCAAUAUUACGCCGU | -1.37 ± 0.21 | 0.028 ± 0.18
70 | AAAUAGCAAUAUUACGCGGA | -1.9 ± 0.12 | -0.348 ± 0.081
71 | AAAUAGCAAUAUUACGCUGG | -1.94 ± 0.13 | -1.15 ± 0.17
72 | AAAUAGCAAUAUUACGCUGU | -3.27 ± 0.14 | -1.89 ± 0.1

Row | Sequence | self-splicing fitness (ln) (30 °C) | self-splicing fitness (ln) (37 °C)
73 | AAAUAGCAAUAUUACGGAUU | -0.612 ± 0.074 | -1.1 ± 0.09
74 | AAAUAGCAAUAUUACGGCAU | -0.403 ± 0.093 | -0.183 ± 0.13
75 | AAAUAGCAAUAUUACGGGAC | -3.19 ± 0.29 | -1.57 ± 0.24
76 | AAAUAGCAAUAUUACGGUCC | -1.33 ± 0.12 | -0.378 ± 0.19
77 | AAAUAGCAAUAUUACGGUGG | -3.94 ± 0.21 | -2.68 ± 0.17
78 | AAAUAGCAAUAUUACGUCAU | -2.45 ± 0.08 | -1.51 ± 0.11
79 | AAAUAGCAAUAUUACGUCCA | -0.829 ± 0.084 | -0.327 ± 0.1
80 | AAAUAGCAAUAUUACGUCGG | -2.54 ± 0.14 | -1.14 ± 0.13
81 | AAAUAGCAAUAUUACGUCGU | -2.69 ± 0.17 | -1.55 ± 0.16
82 | AAAUAGCAAUAUUACGUCUC | -2.14 ± 0.11 | -1.15 ± 0.14
83 | AAAUAGCAAUAUUACGUGAU | -2.26 ± 0.099 | -1.89 ± 0.11
84 | AAAUAGCAAUAUUACGUGGG | -3.39 ± 0.2 | -2.49 ± 0.2
85 | AAAUAGCAAUAUUACGUUAG | -4.15 ± 0.42 | -3.24 ± 0.3
86 | AAAUAGCAAUAUUACGUUCA | -0.751 ± 0.094 | 0.187 ± 0.12
87 | AAAUAGCAAUAUUACGUUCC | -2.08 ± 0.16 | -1.1 ± 0.19
88 | AACAAGCAAUAUUACGAAAU | -3.53 ± 0.13 | -1.4 ± 0.095
89 | AACAAGCAAUAUUACGAGUG | -0.911 ± 0.049 | -0.0361 ± 0.07
90 | AACAAGCAAUAUUACGAUGG | -3.11 ± 0.094 | -1.72 ± 0.079
91 | AACAAGCAAUAUUACGAUUA | -0.823 ± 0.066 | -0.696 ± 0.071
92 | AACAAGCAAUAUUACGAUUG | -4.48 ± 0.21 | -1.54 ± 0.13
93 | AACAAGCAAUAUUACGCAGU | -3.43 ± 0.19 | -1.93 ± 0.16
94 | AACAAGCAAUAUUACGCCAC | -3.71 ± 0.4 | -2.83 ± 0.47
95 | AACAAGCAAUAUUACGCCCC | -0.645 ± 0.24 | 0.323 ± 0.26
96 | AACAAGCAAUAUUACGCGUC | -3.84 ± 0.2 | -2.66 ± 0.15
